In this data set the test system is Escherichia coli TOP10. The experiment in a line: shrunken log2 fold change of peptide-encoding DNA abundance (4.5 h post-induction vs induction); higher = less antimicrobial activity (less host growth inhibition). To be noted: time post-induction: 4.5 h; library: site-saturation at positions 5, 18, 19, 20.
With RRIRFRPPRLPRPRPRPCNGPRP, the “shrunken log2 fold change” value was -0.212. Turning to RRIRERPPRLPRPRPRPFDPPRP, the “shrunken log2 fold change” value amounted to 0.0149.

Take RRIRSRPPRLPRPRPRPVFWPRP: the “shrunken log2 fold change” value stood at 0.365.

For the sequence RRIRHRPPRLPRPRPRPVMQPRP, the “shrunken log2 fold change” value was -0.01.

On to RRIRLRPPRLPRPRPRPHQVPRP, for which the “shrunken log2 fold change” value came out at 0.00465.

As to RRIRYRPPRLPRPRPRPGKLPRP, the “shrunken log2 fold change” value is -0.0944. For the sequence RRIRTRPPRLPRPRPRPIWEPRP, the “shrunken log2 fold change” value was -0.178. Under RRIRDRPPRLPRPRPRPGHKPRP stands 0.00794; under RRIRARPPRLPRPRPRPRQAPRP, 0.414. As to RRIRYRPPRLPRPRPRPKEIPRP, the “shrunken log2 fold change” value was -0.0434. The same measure for RRIRLRPPRLPRPRPRPPIPPRP: 0.316. Turning to RRIRNRPPRLPRPRPRPVLKPRP, the “shrunken log2 fold change” value came out at 0.0485.

Consider RRIRMRPPRLPRPRPRPAAQPRP, for which the “shrunken log2 fold change” value came to 1.12. On to RRIRLRPPRLPRPRPRPYATPRP, for which the “shrunken log2 fold change” value is -0.246. Under RRIRFRPPRLPRPRPRPYWSPRP stands -0.428; under RRIRDRPPRLPRPRPRPDCRPRP, 0.249. Consider RRIRSRPPRLPRPRPRPFGSPRP, for which the “shrunken log2 fold change” value was -0.178. As to RRIRDRPPRLPRPRPRPSKGPRP, the “shrunken log2 fold change” value is -0.0731. RRIRMRPPRLPRPRPRPKPNPRP: the “shrunken log2 fold change” value was found to be 0.954. With RRIRLRPPRLPRPRPRPRWFPRP, the “shrunken log2 fold change” value came to 0.602. Under RRIRDRPPRLPRPRPRPNTNPRP stands -0.448. The same measure for RRIRVRPPRLPRPRPRPLTCPRP: -0.187. RRIRMRPPRLPRPRPRPKNNPRP: the “shrunken log2 fold change” value came out at 0.311. On to RRIRLRPPRLPRPRPRPGPTPRP, for which the “shrunken log2 fold change” value was 0.109. Under RRIRKRPPRLPRPRPRPATVPRP stands 0.0874. Take RRIRYRPPRLPRPRPRPIRQPRP: the “shrunken log2 fold change” value is -0.0123. Regarding RRIRQRPPRLPRPRPRPKNHPRP, the “shrunken log2 fold change” value is -0.23. Under RRIRMRPPRLPRPRPRPLVCPRP stands 0.368; under RRIRLRPPRLPRPRPRPAMKPRP, -0.0543; under RRIRVRPPRLPRPRPRPSNAPRP, 0.111. With RRIRKRPPRLPRPRPRPLYHPRP, the “shrunken log2 fold change” value is -0.364. As for RRIRLRPPRLPRPRPRPRPYPRP, the “shrunken log2 fold change” value was -0.0267. As to RRIRNRPPRLPRPRPRPADEPRP, the “shrunken log2 fold change” value is -0.00151.

With RRIRHRPPRLPRPRPRPSQAPRP, the “shrunken log2 fold change” value is -0.142.

As for RRIRKRPPRLPRPRPRPILHPRP, the “shrunken log2 fold change” value is -0.394.

As to RRIRPRPPRLPRPRPRPHNTPRP, the “shrunken log2 fold change” value is -0.481.

Consider RRIRERPPRLPRPRPRPRTNPRP, for which the “shrunken log2 fold change” value was 0.00565. Under RRIRWRPPRLPRPRPRPGTCPRP stands 0.0934; under RRIRIRPPRLPRPRPRPCPIPRP, 0.128; under RRIRYRPPRLPRPRPRPICEPRP, -0.404. The same measure for RRIRYRPPRLPRPRPRPDPFPRP: -0.206; for RRIRSRPPRLPRPRPRPATLPRP: -0.0555. Regarding RRIRHRPPRLPRPRPRPGESPRP, the “shrunken log2 fold change” value is -0.0414. RRIRRRPPRLPRPRPRPADFPRP: the “shrunken log2 fold change” value worked out at 0.115. The same measure for RRIRCRPPRLPRPRPRPKKWPRP: 0.00275; for RRIRWRPPRLPRPRPRPCDDPRP: -0.00725. The same measure for RRIRMRPPRLPRPRPRPNPCPRP: 0.169. The same measure for RRIRWRPPRLPRPRPRPDWEPRP: 0.229; for RRIRSRPPRLPRPRPRPETCPRP: 0.152. On to RRIRLRPPRLPRPRPRPSCMPRP, for which the “shrunken log2 fold change” value is -0.362.

For RRIRGRPPRLPRPRPRPFPLPRP, the “shrunken log2 fold change” value worked out at 0.227.

On to RRIRYRPPRLPRPRPRPVPNPRP, for which the “shrunken log2 fold change” value is -0.0518. On to RRIRWRPPRLPRPRPRPMYHPRP, for which the “shrunken log2 fold change” value was -0.712. Under RRIRYRPPRLPRPRPRPFAMPRP stands -0.844; under RRIRPRPPRLPRPRPRPESLPRP, -0.0197; under RRIRSRPPRLPRPRPRPQVGPRP, -0.175. As for RRIRLRPPRLPRPRPRPHTHPRP, the “shrunken log2 fold change” value was -0.441. With RRIRMRPPRLPRPRPRPSGDPRP, the “shrunken log2 fold change” value amounted to 0.839. For RRIRSRPPRLPRPRPRPFKTPRP, the “shrunken log2 fold change” value is -0.0323. Under RRIRRRPPRLPRPRPRPRGKPRP stands 0.694; under RRIRDRPPRLPRPRPRPGERPRP, 0.276. Under RRIRQRPPRLPRPRPRPQMLPRP stands 0.0203; under RRIRTRPPRLPRPRPRPATDPRP, 0.313. Under RRIRNRPPRLPRPRPRPYKQPRP stands -0.0495; under RRIRGRPPRLPRPRPRPGISPRP, 0.0483. Regarding RRIRRRPPRLPRPRPRPMLRPRP, the “shrunken log2 fold change” value came to 0.854. Take RRIRCRPPRLPRPRPRPVNHPRP: the “shrunken log2 fold change” value is -0.444.

Turning to RRIRWRPPRLPRPRPRPYWWPRP, the “shrunken log2 fold change” value was -0.0939. The same measure for RRIRYRPPRLPRPRPRPTGQPRP: 0.0557; for RRIRERPPRLPRPRPRPYSQPRP: -0.443.

Regarding RRIRERPPRLPRPRPRPKPWPRP, the “shrunken log2 fold change” value amounted to 0.287. For RRIRARPPRLPRPRPRPNPRPRP, the “shrunken log2 fold change” value stood at 0.722.

As for RRIRLRPPRLPRPRPRPQSQPRP, the “shrunken log2 fold change” value is -0.179. In the case of RRIRERPPRLPRPRPRPDCPPRP, the “shrunken log2 fold change” value was -0.559. With RRIRDRPPRLPRPRPRPMNCPRP, the “shrunken log2 fold change” value was -0.00373.

On to RRIRRRPPRLPRPRPRPIWDPRP, for which the “shrunken log2 fold change” value worked out at 0.604. For RRIRIRPPRLPRPRPRPFRCPRP, the “shrunken log2 fold change” value is -0.192. Under RRIRNRPPRLPRPRPRPCVCPRP stands -0.00201. Under RRIRVRPPRLPRPRPRPQGLPRP stands -0.29; under RRIRSRPPRLPRPRPRPMPFPRP, -0.0591; under RRIRQRPPRLPRPRPRPVIFPRP, -0.0797.

As for RRIRFRPPRLPRPRPRPQSCPRP, the “shrunken log2 fold change” value was -0.0102. The same measure for RRIRLRPPRLPRPRPRPLVQPRP: -0.0853; for RRIRFRPPRLPRPRPRPQIWPRP: -0.0457; for RRIRLRPPRLPRPRPRPADEPRP: 0.167. The same measure for RRIRMRPPRLPRPRPRPILRPRP: 0.00958; for RRIRERPPRLPRPRPRPMEPPRP: 0.0704; for RRIRLRPPRLPRPRPRPIVVPRP: -0.0319. The same measure for RRIRRRPPRLPRPRPRPHWMPRP: 0.122.

Consider RRIRKRPPRLPRPRPRPDFQPRP, for which the “shrunken log2 fold change” value was determined as 0.33.

Take RRIRYRPPRLPRPRPRPTMMPRP: the “shrunken log2 fold change” value is -1.19. The same measure for RRIRRRPPRLPRPRPRPMDLPRP: 0.0641; for RRIRPRPPRLPRPRPRPRWVPRP: 0.164. Turning to RRIRSRPPRLPRPRPRPNELPRP, the “shrunken log2 fold change” value was -0.295. The same measure for RRIRARPPRLPRPRPRPSQTPRP: 0.416; for RRIRCRPPRLPRPRPRPCRYPRP: -0.446; for RRIRCRPPRLPRPRPRPLDYPRP: -0.75. Under RRIRDRPPRLPRPRPRPTDCPRP stands 0.00372; under RRIRMRPPRLPRPRPRPIFPPRP, 0.229. Under RRIRCRPPRLPRPRPRPGCHPRP stands -0.00885; under RRIRVRPPRLPRPRPRPTHCPRP, 0.233; under RRIRIRPPRLPRPRPRPFIMPRP, -0.187. RRIRKRPPRLPRPRPRPAKIPRP: the “shrunken log2 fold change” value is -0.266. Regarding RRIRCRPPRLPRPRPRPHQQPRP, the “shrunken log2 fold change” value came out at 0.14. Regarding RRIRCRPPRLPRPRPRPDRMPRP, the “shrunken log2 fold change” value is -0.139. RRIRPRPPRLPRPRPRPYAKPRP: the “shrunken log2 fold change” value turned out to be 0.258. With RRIRYRPPRLPRPRPRPCISPRP, the “shrunken log2 fold change” value was found to be 0.0212. As to RRIRARPPRLPRPRPRPWNDPRP, the “shrunken log2 fold change” value was -0.158. RRIRGRPPRLPRPRPRPSLVPRP: the “shrunken log2 fold change” value was 0.473. The same measure for RRIRFRPPRLPRPRPRPSKNPRP: -0.519; for RRIRVRPPRLPRPRPRPKLDPRP: 0.116; for RRIRFRPPRLPRPRPRPYIGPRP: -1.25. The same measure for RRIRRRPPRLPRPRPRPKLYPRP: 0.174.

As for RRIRIRPPRLPRPRPRPNNHPRP, the “shrunken log2 fold change” value was -1.03. For RRIRQRPPRLPRPRPRPGAIPRP, the “shrunken log2 fold change” value was determined as 0.0781. Consider RRIRIRPPRLPRPRPRPCHQPRP, for which the “shrunken log2 fold change” value is -0.245. Under RRIRPRPPRLPRPRPRPSGYPRP stands -0.204; under RRIRPRPPRLPRPRPRPHGTPRP, -0.0314; under RRIRCRPPRLPRPRPRPNCQPRP, -0.134. As for RRIRTRPPRLPRPRPRPWTPPRP, the “shrunken log2 fold change” value is -0.00155.

Take RRIRMRPPRLPRPRPRPNLLPRP: the “shrunken log2 fold change” value was -0.103. Regarding RRIRLRPPRLPRPRPRPHRQPRP, the “shrunken log2 fold change” value was determined as 0.115. The same measure for RRIRWRPPRLPRPRPRPRPIPRP: 0.434. Regarding RRIRCRPPRLPRPRPRPLDSPRP, the “shrunken log2 fold change” value was -0.179. Turning to RRIRYRPPRLPRPRPRPSQWPRP, the “shrunken log2 fold change” value is -0.162.

Source of the values: the supplement of paper PMC9112550, “Optimization of the antimicrobial peptide Bac7 by deep mutational scanning” (BMC Biology, 2022).
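Further: peptides expressed intracellularly from a pBAD plasmid library in pooled LB shake-flask culture, induced with 0.3% L-arabinose, DNA abundance read by NGS, three biological replicates, DESeq2 with apeglm shrinkage.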
